Assay results reported in US6432645B1, “Beta subunits of Slo family potassium channels” (ICAgen Inc., priority 1999, dated 2002).
Values belong to the compound of their own block, whether it stands above or below them.

Legend:
[1] = molecular target: T1, Slo-1/BKB3 (Homo sapiens, UniProt Q12791); test: Whole-cell voltage-clamp of membrane currents in HEK293 cells co-expressing Slo-1 and BK beta 3; format: cell-based; details: Slo-1 + BK beta 3 in HEK293 cells, 250 ms depolarizing steps from holding potential -80 mV; for sensitivity (block) of membrane currents: CTX 100 nM
T1 construct: expressed in transfected cells; host or cells: HEK293
Method: (§1) FIGS. 6A-B. Slo-1/BKB3 forms BK type II-like charybdotoxin—(CTX) insensitive channels. Slo-1 (A) or Slo-1+BK beta 3 (B) were expressed in HEK293 cells and membrane currents measured using the whole-cell voltage-clamp technique. […]. In contrast, membrane currents in cells co-expressing Slo-1 and BK beta 3 were TEA (5 mM) sensitive but CTX (100 nM) insensitive (FIG. 6B). Similar recordings were made from 4 cells expressing Slo-1 alone and 6 cells co-expressing Slo-1/BKB3. Scale bars represent 1 nA and 200 ms.

[2] = molecular target: T2, Slo-1 (Homo sapiens, UniProt Q12791); test: Whole-cell voltage-clamp of membrane currents in HEK293 cells expressing Slo-1 alone; format: cell-based; set-up: expressed in transfected cells; host or cells: HEK293; details: Slo-1 alone in HEK293 cells, 250 ms depolarizing steps from holding potential -80 mV; for inhibition (block) of membrane currents: CTX 100 nM
Method: as §1

[3] = molecular target: T2, Slo-1; test: cell-based or functional assay

T2 sequence (Q12791 whole entry): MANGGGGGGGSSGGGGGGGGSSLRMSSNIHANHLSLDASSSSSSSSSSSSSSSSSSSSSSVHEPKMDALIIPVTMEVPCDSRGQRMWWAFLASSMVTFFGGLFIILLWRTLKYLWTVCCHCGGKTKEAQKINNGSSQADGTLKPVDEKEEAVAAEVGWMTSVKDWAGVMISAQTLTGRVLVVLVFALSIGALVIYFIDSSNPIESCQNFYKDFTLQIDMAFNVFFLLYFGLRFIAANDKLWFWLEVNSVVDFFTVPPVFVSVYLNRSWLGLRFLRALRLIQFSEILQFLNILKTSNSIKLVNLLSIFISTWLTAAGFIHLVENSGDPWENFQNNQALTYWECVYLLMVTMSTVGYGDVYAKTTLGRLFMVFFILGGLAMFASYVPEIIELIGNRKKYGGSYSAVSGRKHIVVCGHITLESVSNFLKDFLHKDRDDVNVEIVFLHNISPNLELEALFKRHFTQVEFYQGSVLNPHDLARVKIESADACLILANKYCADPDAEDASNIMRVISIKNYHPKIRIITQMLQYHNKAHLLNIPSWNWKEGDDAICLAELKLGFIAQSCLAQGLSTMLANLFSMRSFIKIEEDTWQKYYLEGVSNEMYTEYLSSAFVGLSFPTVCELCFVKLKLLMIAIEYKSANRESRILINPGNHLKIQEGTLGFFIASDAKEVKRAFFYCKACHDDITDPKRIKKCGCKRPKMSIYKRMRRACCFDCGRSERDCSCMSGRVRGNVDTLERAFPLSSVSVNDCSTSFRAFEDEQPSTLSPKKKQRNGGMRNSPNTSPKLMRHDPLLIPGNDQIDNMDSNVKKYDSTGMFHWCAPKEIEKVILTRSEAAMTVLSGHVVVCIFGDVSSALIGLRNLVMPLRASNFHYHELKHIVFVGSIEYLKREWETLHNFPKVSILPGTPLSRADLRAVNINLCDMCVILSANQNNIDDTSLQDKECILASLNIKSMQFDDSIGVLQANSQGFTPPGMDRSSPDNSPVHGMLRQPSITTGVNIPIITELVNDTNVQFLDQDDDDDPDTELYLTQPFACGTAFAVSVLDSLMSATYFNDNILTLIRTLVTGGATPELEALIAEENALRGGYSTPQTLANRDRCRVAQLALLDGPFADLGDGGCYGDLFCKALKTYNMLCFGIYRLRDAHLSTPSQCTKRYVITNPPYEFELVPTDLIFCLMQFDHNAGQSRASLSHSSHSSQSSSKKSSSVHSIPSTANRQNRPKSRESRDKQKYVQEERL
T1 sequence (Q12791 whole entry): as above
T1 sequence (Q86W47 whole entry W137E partner): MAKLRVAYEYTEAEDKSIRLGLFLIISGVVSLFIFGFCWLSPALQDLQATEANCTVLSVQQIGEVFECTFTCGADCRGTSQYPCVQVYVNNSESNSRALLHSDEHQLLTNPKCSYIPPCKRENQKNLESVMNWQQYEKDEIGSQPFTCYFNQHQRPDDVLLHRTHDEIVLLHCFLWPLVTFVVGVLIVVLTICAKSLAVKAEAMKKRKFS

Compound: CC[N+](CC)(CC)CC [TEA]
- sensitivity of membrane currents ([1]; TEA 5 mM): sensitive
- inhibition of membrane currents ([2]; TEA 5 mM): strongly inhibited

Compound: charybdotoxin [CTX]
- sensitivity (block) of membrane currents [1]: insensitive
- sensitivity (block) of membrane currents ([1]; listed as charybdotoxin): virtually unblocked
- inhibition (block) of membrane currents [2]: strongly inhibited
- inhibition (block) of membrane currents ([2]; listed as charybdotoxin): almost completely blocked

- shift of the Slo-1 activation curve (V1/2 act), patch clamp, 50 uM free Ca2+ [3]: 15 mV
Compound: human BK beta 3
